# Data reported in patent US20220089746A1 (INSTITUT NATIONAL DE LA RECHERCHE SCIENTIFIQUE, published 2022).
# Like-named read-outs stand apart in the source and are kept apart here.
# B1: Nanobody 216_D11 (VHH)
# VHH: EVQLQASGGGFVQPGGSLRLSCAASGDTSESTSMGWFRQAPGKEREFVSAISRSSTWDAYYADSVKGRFTISRDNSKNTVYLQMNSLRAEDTATYYCAMADIFDHPQNASFMKYWGQGTQVTVSS
# notes: 181 aa with the tag, so CDR3 has 15 residues, which fits CDR set (c) or (l)
# B2: Nanobody 214_H05 (VHH)
# VHH: EVQLQASGGGFVQPGGSLRLSCAASGTTSNSSGMGWFRQAPGKEREFVSAISWDHGILTYYADSVKGRFTISRDNSKNTVYLQMNSLRAEDTATYYCAHGYVHFNMTHRHISDYWGQGTQVTVSS
# notes: Humanized synthetic single domain antibody (hs2dAb library, Hybrigenics); 181 aa with the tag, so CDR3 has 15 residues, which fits CDR set (c), (k) or (l)
# B3: Nanobody 219_F09 (VHH)
# VHH: EVQLQASGGGFVQPGGSLRLSCAASGAYSFESGMGWFRQAPGKEREFVSAISSDADLFSYYADSVKGRFTISRDNSKNTVYLQMNSLRAEDTATYYCAAFSSGGELSYWGQGTQVTVSS
# notes: 175 aa with the tag, so CDR3 has 9 residues, which fits CDR set (a), (e) or (h)
# B4: Nanobody 219_A01 (VHH)
# VHH: EVQLQASGGGFVQPGGSLRLSCAASGGGYDWDAMGWFRQAPGKEREFVSAISSNNNGSRYYADSVKGRFTISRDNSKNTVYLQMNSLRAEDTATYYCAADQYWGQGTQVTVSS
# notes: 169 aa with the tag, so CDR3 has 3 residues
# B5: Nanobody 218_F09 (VHH)
# VHH: EVQLQASGGGFVQPGGSLRLSCAASGTTSNGEVMGWFRQAPGKEREFVSAISFGAGSSEYYADSVKGRFTISRDNSKNTVYLQMNSLRAEDTATYYCAASWYHSSIGSMSYWGQGTQVTVSS
# notes: 178 aa with the tag, so CDR3 has 12 residues, which fits CDR set (b) or (d)
# B6: Nanobody 217_C02 (SEQ ID NO: 52) (VHH)
# VHH: EVQLQASGGGFVQPGGSLRLSCAASGTYSSIEVMGWFRQAPGKEREFVSAISFEPNEFAYYADSVKGRFTISRDNSKNTVYLQMNSLRAEDTATYYCASSVEWRQNGKPNTASYWGQGTQVTVSS
# notes: Humanized synthetic single domain antibody, his-tagged, made in E. coli; 181 aa with the tag; also called NB #12
# B7: Nanobody 218_D11 (VHH)
# VHH: EVQLQASGGGFVQPGGSLRLSCAASGDTSRFDVMGWFRQAPGKEREFVSAISWWSSDHIYYADSVKGRFTISRDNSKNTVYLQMNSLRAEDTATYYCAYGEYPPRMNRRPYWGQGTQVTVSS
# notes: as for B5
# B8: Nanobody 218_B04 (VHH)
# VHH: EVQLQASGGGFVQPGGSLRLSCAASGRTSSQDIMGWFRQAPGKEREFVSAISDYSGGNVYYADSVKGRFTISRDNSKNTVYLQMNSLRAEDTATYYCAFLGEEKTSWYWGQGTQVTVSS
# notes: as for B3
# B9: Nanobody 216_A01 (SEQ ID NO: 6) (VHH)
# VHH: EVQLQASGGGFVQPGGSLRLSCAASGRYSRIEIMGWFRQAPGKEREFVSAISSTPSSNEYYADSVKGRFTISRDNSKNTVYLQMNSLRAEDTATYYCARWDWHSWDTYWGQGTQVTVSS
# notes: Humanized synthetic single domain antibody, his-tagged, made in E. coli; 175 aa with the tag; also called NB #2
# B10: Nanobody 219_F02 (VHH)
# VHH: EVQLQASGGGFVQPGGSLRLSCAASGSTSYSSTMGWFRQAPGKEREFVSAISFDGTSKPYYADSVKGRFTISRDNSKNTVYLQMNSLRAEDTATYYCAAGEWEALMWPPVHDFWIYYWGQGTQVTVSS
# notes: 184 aa with the tag, so CDR3 has 18 residues, which fits CDR set (g) or (i)
# B11: Nanobody 219_H09 (VHH)
# VHH: EVQLQASGGGFVQPGGSLRLSCAASGSTSYGETMGWFRQAPGKEREFVSAISYYSTRKPYYADSVKGRFTISRDNSKNTVYLQMNSLRAEDTATYYCAIVAYIYADGVRGYHQKIDYWGQGTQVTVSS
# notes: as for B10
# B12: Nanobody 218_A01 (VHH)
# VHH: EVQLQASGGGFVQPGGSLRLSCAASGAGSRSDVMGWFRQAPGKEREFVSAISGFWGWTTYYADSVKGRFTISRDNSKNTVYLQMNSLRAEDTATYYCALGGAPGQTGYWGQGTQVTVSS
# notes: as for B3
# Experiments:
# [1] = target: T1, recombinant human galectin-7 (human, UniProt P47929 1-136); assay: ELISA of the selected nanobody clone on hGAL-7 with His-tagged MBP as control; y axis 'ELISA Ratio'; no concentration given
# T1 construct: Prototypic galectin with one CRD; also called hGAL-7; human GAL-7
# T1 sequence (P47929 whole entry): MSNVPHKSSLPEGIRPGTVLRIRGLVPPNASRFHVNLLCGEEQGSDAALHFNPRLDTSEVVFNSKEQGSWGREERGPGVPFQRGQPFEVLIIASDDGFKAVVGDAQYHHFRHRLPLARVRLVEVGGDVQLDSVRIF
# [2] = target: T1, recombinant human galectin-7; assay: phage selection and ELISA (FIG. 3A)
# [3] = target: T1, recombinant human galectin-7; assay: SPR (BIACore), human GAL-7 on the sensor surface, Nb as analyte
# Experimental: SPR analysis. Binding affinities of his-tagged GAL-7-specific Nbs was measured by surface plasmon resonance (SPR) using a BIACore® system. Briefly, a buffer flow was run across the sensor surface, which has previously been coated with human GAL-7, then the Nbs were introduced into the device and allowed to bind to the immobilized antigen. The stability of the binding between GAL-7 and the Nbs was measured and used to calculate the dissociation constant (Kd) of the Nbs for human GAL-7.
# [4] = target: T1, recombinant human galectin-7; assay: cell-based or functional assay
# [5] = target: T1, recombinant human galectin-7; assay: cell-based or functional assay; remark: listed apart in the source
Binder,binding result [1],further results
B1,binds,–
B2,binds,–
B3,binds,–
B4,–,binding result [2]: binds
B5,binds,–
B6,–,Kd [3]: 1500 nM; koff [3]: 0.00165 s⁻¹; kon [3]: 1100 M⁻¹ s⁻¹
B7,binds,–
B8,binds,–
B9,–,"IC50 (read off the curve): inhibition of hGAL-7-induced apoptosis of Jurkat T cells (Annexin V, flow cytometry) [4]: ~2000 nM; Kd [3]: 123 nM; koff [3]: 0.00348 s⁻¹; kon [3]: 28400 M⁻¹ s⁻¹; IC50 (read off the curve): inhibition of hGAL-7-induced apoptosis of Jurkat T cells (Annexin V, flow cytometry) [5]: ~3000 nM"
B10,binds,–
B11,binds,–
B12,binds,–
